Measurements taken from the RNAGym collection of RNA variant scans (doi:10.1093/nar/gkz1192).

B1: CPEB3 Ribozyme (parent)
chain: UAACAGGGGGCCACAGCAGAAGCGUUCACGUCGCAGCCCCUGUCAGAUUCUGGUGAAUCUGCGAAUUCUGCUGUAUAUCUC

Variants of: B1
Assay: self-cleavage, relative activity (ratio to wild type); higher = more cleavage; in vitro, sequencing
Procedure, shortened: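 For each CPEB3 ribozyme variant, relative activity is its cleaved/total read fraction divided by the unmutated ribozyme's. Barcoded error-prone PCR libraries were transcribed by T7 RNA polymerase (5 hours, 37°C) and held in DNase I for 15 min before an EDTA stop, with cleavage occurring throughout. Template-switching reverse transcription and Illumina sequencing were used to read the RNAs. A 5-read minimum applied, and results are the mean of three batches.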

Row | Variant | self-cleavage
1 | UAACAGGGGGCCACAGCAGAAGCGUACACGUCGCAGCCCCUGGCAGAUUCUGGUGAAUCUGCGAAUUCUGCUGUAUAUCUC [U26A U43G] | 0.33
2 | UAACAGGGGGCCACAGCAGAAGCGUACACGUCGCAGCCCCUGACAGAUUCUGGUGAAUCUGCGAAUUCUGCUGUAUAUCUC [U26A U43A] | 0.39
3 | UAACAGGGGGCCACAGCAGAAGCGUACACGUCGCAGCCCCUGCCAGAUUCUGGUGAAUCUGCGAAUUCUGCUGUAUAUCUC [U26A U43C] | 0.29
4 | UAACAGGGGGCCACAGCAGAAGCGUACACGUCGCAGCCCCUGUCAGAUUCUGAUGAAUCUGCGAAUUCUGCUGUAUAUCUC [U26A G53A] | 1
5 | UAACAGGGGGCCACAGCAGAAGCGUACACGUCGCAGCCCCUGUCAGAUUCUGUUGAAUCUGCGAAUUCUGCUGUAUAUCUC [U26A G53U] | 1.04
6 | UAACAGGGGGCCACAGCAGAAGCGUACACGUCGCAGCCCCUGUCAGAUUCUGGUGAAUCUGCGAAUUCUCCUGUAUAUCUC [U26A G70C] | 0.2
7 | UAACAGGGGGCCACAGCAGAAGCGUACACGUCGCAGCCCCUGUCAGAUUCUGGUGAAUCUGCGAAUUCUACUGUAUAUCUC [U26A G70A] | 0.4
8 | UAACAGGGGGCCACAGCAGAAGCGUACACGUCGCAGCCCCUGUCAGAUUCUGGUGAAUCUGCGAAUUCUGCUAUAUAUCUC [U26A G73A] | 0.96
9 | UAACAGGGGGCCACAGCAGAAGCGUACACGUCGCAGCCCCUGUCAGAUUCUGGUGAAUCUGCGAAUUCUGCUGUAAAUCUC [U26A U76A] | 1.02
10 | UAACAGGGGGCCACAGCAGAAGCGUACACGUCGCAGCCCCUGUCAGAUUCUGGUGAAUCUGCGAAUUCUGCUGUACAUCUC [U26A U76C] | 0.74
11 | UAACAGGGGGCCACAGCAGAAGCGUACACCUCGCAGCCCCUGUCAGAUUCUGGUGAAUCUGCGAAUUCUGCUGUAUAUCUC [U26A G30C] | 0.24
12 | UAACAGGGGGCCACAGCAGAAGCGUACACUUCGCAGCCCCUGUCAGAUUCUGGUGAAUCUGCGAAUUCUGCUGUAUAUCUC [U26A G30U] | 0.19
13 | UAACAGGGGGCCACAGCAGAAGCGUACACGUCGCAGCCCCUGUCAGAUUCUGGUGAAUCUGCGAAUUCCGCUGUAUAUCUC [U26A U69C] | 0.4
14 | UAACAGGGGGCCACAGCAGAAGCGUACACGUCGCAGCCCCUGUCAGAUUCUGGUGAAUCUGCGAAUUCGGCUGUAUAUCUC [U26A U69G] | 0.48
15 | UAACAGGGGGCCACAGCAGAAGCGUACACGUCGCAGCCCCUGUCAGAUUCUGGUGAAUCUGCGAAUUCAGCUGUAUAUCUC [U26A U69A] | 0.46
16 | UAACAGGGGGCCACAGCAGAAGCGUACACGUCGCAGCCCCUGUCAGAUUCUGGUUAAUCUGCGAAUUCUGCUGUAUAUCUC [U26A G55U] | 0.77
17 | UAACAGGGGGCCACAGCAGAAGCGUACACGUCGCAGCCCCUGUCAGAUUCUGGUGAAUCUGCGAAUCCUGCUGUAUAUCUC [U26A U67C] | 0.29

Row | Variant | self-cleavage
18 | UAACAGGGGGCCACAGCAGAAGCGUACACGUCGCAGCCCCUGUCAGAUUCUGGUGAAUCUGCGAAUACUGCUGUAUAUCUC [U26A U67A] | 0.38
19 | UAACAGGGGGCCACAGCAGAAGCGUACACGUCGCAGCCCCUGUCAGAUACUGGUGAAUCUGCGAAUUCUGCUGUAUAUCUC [U26A U49A] | 0.49
20 | UAACAGGGGGCCACAGCAGAAGCGUACACGUCGCAGCCCCUGUCAGAUGCUGGUGAAUCUGCGAAUUCUGCUGUAUAUCUC [U26A U49G] | 0.41
21 | UAACAGGGGGCCACAGCAGAAGCGUACACGUCGCAGCCCCUGUCAGAUCCUGGUGAAUCUGCGAAUUCUGCUGUAUAUCUC [U26A U49C] | 0.3
22 | UAACAGGGGGCCACAGCAGAAGCGUACACGUCGCAGCCCCUGUCAGAUUCUGGUGAAUCUGCGAAAUCUGCUGUAUAUCUC [U26A U66A] | 0.38
23 | UAACAGGGGGCCACAGCAGAAGCGUACACGUCGCAGCCCCUGUCAGAUUCUGGUGAAUCUGCGAACUCUGCUGUAUAUCUC [U26A U66C] | 0.34
24 | UAACAGGGGGCCACAGCAGAAGCGUACACGUCGCAGCCCCUGUCAGAUUCUGGUGAAUCUGCGAAGUCUGCUGUAUAUCUC [U26A U66G] | 0.42
25 | UAACAGGGGGCCACAGCAGAAGCGUACACGUCGCAGCCCCUGUCAGAUUCUGGUGAAUCUACGAAUUCUGCUGUAUAUCUC [U26A G61A] | 0.73
26 | UAACAGGGGGCCACAGCAGAAGCGUACACGUCGCAGCCCCUGUCAGAUUCUGGUGAAUCUCCGAAUUCUGCUGUAUAUCUC [U26A G61C] | 0.27
27 | UAACAGGGGGCCACAGCAGAAGCGUACACGUCGCAGCCCCAGUCAGAUUCUGGUGAAUCUGCGAAUUCUGCUGUAUAUCUC [U26A U41A] | 0.25
28 | UAACAGGGGGCCACAGCAGAAGCGUACACGUCGCAGCCCCCGUCAGAUUCUGGUGAAUCUGCGAAUUCUGCUGUAUAUCUC [U26A U41C] | 0.67
29 | UAACAGGGGGCCACAGCAGAAGCGUACACGUCGCAGCCCCGGUCAGAUUCUGGUGAAUCUGCGAAUUCUGCUGUAUAUCUC [U26A U41G] | 0.33
30 | UAACAGGGGGCCACAGCAGAAGCGUACACGUCGCAGCCCCUGUCAGAUUCUGGUGAAUCUGCGAAUUCUGCUGUAUAUUUC [U26A C79U] | 1.05
31 | UAACAGGGGGCCACAGCAGAAGCGUACACGUCGCAGCCCCUGUCAGAUUCUGGUGAAUCUGCGAAUUCUGCUGUAUAUAUC [U26A C79A] | 1.07
32 | UAACAGGGGGCCACAGCAGAAGCGUACACGUCGCAUCCCCUGUCAGAUUCUGGUGAAUCUGCGAAUUCUGCUGUAUAUCUC [U26A G36U] | 0.39
33 | UAACAGGGGGCCACAGCAGAAGCGUACACGUCGCAGCCCCUGUCAGAUUCUGGUGAAUCUGCGAAUUCUGCUGAAUAUCUC [U26A U74A] | 1.31
34 | UAACAGGGGGCCACAGCAGAAGCGUACACGUCGCAGCCCCUGUCAGAUUCUGGUGAAUCUGCGAAUUCUGCUGCAUAUCUC [U26A U74C] | 1.16
